The text below walks through data of US20120027773A1 (AVEO PHARMACEUTICALS, published 2012).

The Kd is the free concentration of one partner at which half of the binding sites on the other are occupied at equilibrium, for simple one-to-one binding. Broadly, the koff is the rate constant with which the complex falls apart. By kon is commonly meant the second-order rate constant of association.

Assay [1] has as its target T1, recombinant human RON-ECD/mFc fusion protein (human, UniProt Q04912 25-957).
T1 construct: extracellular domain; also called rhRON ECD/mFc; rhRon ECD/mFc; not shown: THXmFC: Thrombin/His tag/Factor Xa-AJ mouse IgG-Fc
Put plainly: SPR, Ab captured on anti-mouse IgG, 37 C, AVG. As for the experimental part:
(§1) The binding affinities and kinetics of binding of antibodies 07F01, 29B06, 17F06, 18H09, and 12B11 to recombinant human RON-ECD/mFc fusion protein (rhRON ECD/mFc) and recombinant human RON SEMA and PSI domains (rhRON SEMA+PSI) (R&D Systems, Inc., Minneapolis, Minn.) were measured by surface plasmon resonance, using a Biacore T100 instrument (GE Healthcare, Piscataway, N.J.).
(§2) Rabbit anti-mouse IgGs (GE Healthcare) were immobilized on carboxymethylated dextran CM4 sensor chips (GE Healthcare) by amine coupling, according to a standard protocol. Analyses were performed at 25° C. and 37° C., using PBS containing 0.05% surfactant P20 as running buffer. The antibodies were captured in individual flow cells at a flow rate of 10 μl/min. Injection time was varied for each antibody to yield an Rmax between 30 and 60 RU. 250 μg/mL mouse Fc were injected at 30 μl/min for 120 seconds to block non-specific binding of antibodies to Fc portion of the protein when needed. Buffer, rhRon ECD/mFc or rhRON SEMA+PSI diluted in running buffer was injected sequentially over a reference surface (no antibody captured) and the active surface (antibody to be tested) for 300 seconds at 60 μl/minute. The dissociation phase was monitored for up to 3600 seconds. The surface was then regenerated with two 60-second injections of 10 mM Glycine-HCl, pH 1.7, at a flow rate of 60 μl/min. The rhRON ECD/mFc or rhRON SEMA+PSI concentration range tested was 0.625 nM to 20 nM.
(§3) Kinetic parameters were determined using the kinetic function of the BIAevaluation software (GE Healthcare) with double reference subtraction. Kinetic parameters for each antibody, kₐ (association rate constant), kd (dissociation rate constant) and KD (equilibrium dissociation constant) were determined.
Background: In SPR one partner is held on a chip, and binding of the other changes the refractive index at the surface.

Assay [2] has as its target T2, recombinant human RON SEMA and PSI domains (human, UniProt Q04912 25-571).
T2 construct: domain: SEMA+PSI; Commercial protein (R&D Systems); also called rhRON SEMA+PSI; hRON SEMA+PSI
Put plainly: SPR, Ab captured on anti-mouse IgG, 37 C, AVG. The method, then: as §1, §2

In assay [3] the target is T3, human wild-type RON (cell surface) (human, UniProt Q04912 25-1400).
T3 construct: whole, on cells; also called Human RON; wt RON
Put plainly: FACS, 10 ug/ml antibody, PC3 cells, 4 C. As for the experimental part:
Binding to cell surface wild-type RON and delta 160 RON at 4° C. was determined for antibodies 07F01, 12B11, 17F06, 18H09, and 29B06, using FACS. Cells expressing wild-type RON (PC3), and cells expressing delta 160 RON (HT-29), were harvested using cell dissociation buffer (Invitrogen), washed twice with FACS buffer (0.5% BSA PBS) and treated with CytoQ Antibody diluent and FC receptor block (Innovex). Purified antibodies were diluted at a concentration of 10 μg/ml, in FACS buffer. Cells were incubated with 100 μl of antibody mix for one hour, washed with FACS buffer three times, and incubated for 45 minutes with goat anti-mouse PE conjugated antibody (Jackson Immunoresearch Laboratories). Cells were washed three times with FACS buffer, resuspended in 300 μl of FACS buffer and analyzed using a Beckman Coulter Cytomics FC 500 FACS instrument.
For orientation: A flow cytometer gives signals particle by particle.

Assay [4] has as its target T2, recombinant human RON SEMA and PSI …. Put plainly: ECL competition, MSP binding to coated hRON SEMA+PSI; competitor MSP; average. The method, then:
The biochemical neutralization assay measures inhibition of MSP binding to hRON by antibodies in hybridoma supernatants, using electrochemiluminescence (ECL). MA2400 96-well high binding plates (Meso Scale Discovery) were coated with 25 μl of 0.42 μg/mL hRON SEMA+PSI (an N-terminal portion of the ECD of hRON; R&D Systems) in PBS for one hour at room temperature with agitation. The plates were washed four times with PBS+0.1% Tween-20 (PBST), and blocked with 150 μl of charcoal-stripped fetal bovine serum (FBS) (Gibco). The hybridoma supernatant were added and incubated for 45 minutes at room temperature. After incubation, 5 μl of MSP (3 μg/mL) in charcoal stripped FBS was added to each well, and incubated for 45 minutes. The plate was washed four times with PBST, and 25 μl of 1 μg/mL biotinylated anti-MSP antibody (R&D Systems) was added to the plates for one hour at room temperature with agitation. The plates were washed four times with PBST, and incubated with 25 μl of 1 μg/mL ST-streptavidin (Meso Scale Discovery) for one hour at room temperature with agitation. The plates were washed four times with PBST, and 150 μl read buffer (Meso Scale Discovery) was added to each well before the plates were analyzed on a Sector Imager 2400 (Meso Scale Discovery) instrument. Antibodies 07F01, 18H09 and 29B06 each blocked MSP binding to hRON SEMA+PSI in this neutralization assay.
Antibodies 07F01, 12B11, 17F06, 18H09, and 29B06 were tested for inhibition of MSP binding to hRON SEMA+PSI, as measured by electrochemiluminescence (ECL) assay as described in Example 3. The antibodies (concentration range: 0.006-10 μg/mL) were incubated for 45 minutes at room temperature.

The target of assay [5] is T3, human wild-type RON (cell surface). Put plainly: cell-based or functional assay.
In assay [6] the target is T1, recombinant human RON-ECD/mFc fusion …. In words: SPR, Ab captured on anti-mouse IgG, 25 C, AVG. The method, then:
as §1, §2, §3

B1: 29B06 (antibody, mouse IgG1, kappa)
heavy: EVQLQESGPSLVKPSQTLSLTCSVTGDSITSGYWNWIRKFPGNKLEYMGYISYSGKTYYNPSLKSRISITRDTSKNHYYLQLISVTAEDTATYYCARSKYDYAMDYWGQGTSVTVSSAKTTPPSVYPLAPGSAAQTNSMVTLGCLVKGYFPEPVTVTWNSGSLSSGVHTFPAVLQSDLYTLSSSVTVPSSTWPSETVTCNVAHPASSTKVDKKIVPRDCGCKPCICTVPEVSSVFIFPPKPKDVLTITLTPKVTCVVVDISKDDPEVQFSWFVDDVEVHTAQTQPREEQFNSTFRSVSELPIMHQDWLNGKEFKCRVNSAAFPAPIEKTISKTKGRPKAPQVYTIPPPKEQMAKDKVSLTCMITDFFPEDITVEWQWNGQPAENYKNTQPIMDTDGSYFVYSKLNVQKSNWEAGNTFTCSVLHEGLHNHHTEKSLSHSPGK
light: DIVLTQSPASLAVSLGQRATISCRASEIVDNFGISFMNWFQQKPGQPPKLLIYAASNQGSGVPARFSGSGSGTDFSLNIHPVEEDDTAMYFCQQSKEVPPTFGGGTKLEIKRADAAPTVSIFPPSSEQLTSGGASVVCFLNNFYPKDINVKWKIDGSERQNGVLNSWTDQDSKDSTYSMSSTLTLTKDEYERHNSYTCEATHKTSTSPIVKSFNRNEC
notes: Murine hybridoma monoclonal, IgG1/kappa; also called mu29B06; antibody 29B06
For the molecule B1, the Kd was found to be 0.28 nM in assay [1], 1.3 nM in assay [2] and 0.65 nM in assay [6]. For the same molecule, the results for the off-rate constant (koff) in assay [1], in assay [2] and in assay [6] were 0.0007 s⁻¹, 0.00069 s⁻¹ and 0.00013 s⁻¹, respectively. The values for the kon in assay [1], in assay [2] and in assay [6] were 2.3e+06 M⁻¹ s⁻¹, 520000 M⁻¹ s⁻¹ and 200000 M⁻¹ s⁻¹, respectively. Moreover, the “PC3 % cell surface binding” value in assay [3] was 99.1%. Also, the “Maximum Neutralization (%)” value in assay [4] came out at 87.6%. In assay [5], the “Mean IC50 (nM), inhibition of MSP-dependent ERK phosphorylation, T47D cells” value was 0.44 nM.

B2: 07F01 (antibody, mouse IgG1, kappa, V domains shown)
VH: EVKLLESGGGLVQPGGSLKLSCAASGFDFSRHWMSWVRLAPGKGLEWIAEINPDSRTINYTPSLKEKFIISRDNAKNSLFLQMNRVRSEDTALYYCARRVRIHYYGAMDCWGQGTSVTVSS
VL: DIVLTQSQKIVSTSVGARVSVTCKASQNVGSSLVWYQQKPGQSPKTLIYSASFRYSGVPDRFTGSGSGTDFTLTISNVQSEDLADYFCQQYNNYPLTFGAGTKLELKR
notes: Murine hybridoma monoclonal, IgG1/kappa; also called mu07F01; antibody 07F01
For the molecule B2, in assay [1], the Kd is 0.21 nM, the koff came out at 0.00035 s⁻¹ and the kon came to 2.1e+06 M⁻¹ s⁻¹. In assay [2], the Kd came to 0.4 nM, the koff turned out to be 0.0008 s⁻¹ and the kon is 2e+06 M⁻¹ s⁻¹. The “PC3 % cell surface binding” value in assay [3] amounted to 99.3%. The “Maximum Neutralization (%)” value in assay [4] was determined as 88.3%. Moreover, in assay [5], the “Mean IC50 (nM), inhibition of MSP-dependent ERK phosphorylation, T47D cells” value is 0.07 nM. In assay [6], the Kd is 0.23 nM, the koff is 9.3e-05 s⁻¹ and the kon came to 400000 M⁻¹ s⁻¹.
